Experimental data as given in US20210061904A1 (GMAX BIOPHARM, published 2021).
Values belong to the binder of their own block, whether it stands above or below them.

Tests used:
[1] = target: human GLP-1 receptor (hGLP-1R) (human) (UniProt P43220); assay: cell-based or functional assay
[2] = target: T1, human gastric inhibitory polypeptide receptor (hGIPR) (human) (UniProt P48546); assay: cell-based or functional assay
T1 sequence: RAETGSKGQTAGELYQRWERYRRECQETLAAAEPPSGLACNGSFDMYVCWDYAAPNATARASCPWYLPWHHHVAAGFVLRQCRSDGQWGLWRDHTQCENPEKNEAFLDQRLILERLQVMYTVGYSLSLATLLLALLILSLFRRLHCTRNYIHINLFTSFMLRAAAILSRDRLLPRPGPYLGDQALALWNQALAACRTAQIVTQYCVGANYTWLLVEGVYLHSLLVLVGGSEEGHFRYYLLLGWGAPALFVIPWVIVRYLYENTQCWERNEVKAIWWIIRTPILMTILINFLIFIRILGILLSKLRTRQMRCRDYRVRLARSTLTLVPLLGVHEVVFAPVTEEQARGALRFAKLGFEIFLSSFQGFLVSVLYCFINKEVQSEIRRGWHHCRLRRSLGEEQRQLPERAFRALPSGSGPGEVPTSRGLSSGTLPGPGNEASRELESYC

[3] = target: T2, human gastric inhibitory polypeptide receptor (hGIPR) (human, UniProt P48546 22-466); assay: cell-based or functional assay
T2 sequence: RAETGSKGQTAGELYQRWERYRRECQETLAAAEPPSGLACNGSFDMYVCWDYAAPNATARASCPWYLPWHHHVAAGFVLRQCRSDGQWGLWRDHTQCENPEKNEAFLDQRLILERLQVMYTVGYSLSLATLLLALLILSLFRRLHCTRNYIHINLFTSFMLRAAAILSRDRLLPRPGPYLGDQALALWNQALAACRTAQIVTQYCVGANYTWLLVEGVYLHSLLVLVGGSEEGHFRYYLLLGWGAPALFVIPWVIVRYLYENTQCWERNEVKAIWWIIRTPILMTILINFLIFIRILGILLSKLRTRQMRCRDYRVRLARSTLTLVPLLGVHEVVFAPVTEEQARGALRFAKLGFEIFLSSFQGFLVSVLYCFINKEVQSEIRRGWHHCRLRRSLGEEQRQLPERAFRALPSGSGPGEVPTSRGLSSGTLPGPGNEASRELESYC

[4] = target: T2, human gastric inhibitory polypeptide …; assay: FACS on CHO-DHFR-hGIPR cells, 1 µM antibody
Experimental: PBS containing 10 mM EDTA was used to detach the CHO-DHFR-hGIPR cells and 10⁵ cells/tube was distributed into 1.5 mL EP tubes, and the supernatant was removed after centrifugation. The negative control sample was resuspended with a loading buffer (PBS, 2% FBS). For the positive control, 200 μL GIPR antibody solution of specific concentration was added to the cells and incubated at room temperature; after incubation, the cells were then centrifuged at 1500 rpm to remove the supernatant, washed with a FACS loading buffer and centrifuged again. The cells were resuspended with addition (200 μL/well) of a FITC labeled goat anti-mouse fluorescent antibody or PE labeled goat anti-human fluorescent antibody at 1:50 dilution and incubated at room temperature for 30 min in the dark. The supernatant was removed after centrifugation, and cells were washed with FACS loading buffer, centrifuged again and resuspended with the loading buffer for FACS analysis. The recombinant anti-hGIPR functional antibody specifically binds to GIPR-expressing CHO-DHFR-GIPR cells.

human GLP-1 receptor (hGLP-1R) (human), sequence (P43220 24-463): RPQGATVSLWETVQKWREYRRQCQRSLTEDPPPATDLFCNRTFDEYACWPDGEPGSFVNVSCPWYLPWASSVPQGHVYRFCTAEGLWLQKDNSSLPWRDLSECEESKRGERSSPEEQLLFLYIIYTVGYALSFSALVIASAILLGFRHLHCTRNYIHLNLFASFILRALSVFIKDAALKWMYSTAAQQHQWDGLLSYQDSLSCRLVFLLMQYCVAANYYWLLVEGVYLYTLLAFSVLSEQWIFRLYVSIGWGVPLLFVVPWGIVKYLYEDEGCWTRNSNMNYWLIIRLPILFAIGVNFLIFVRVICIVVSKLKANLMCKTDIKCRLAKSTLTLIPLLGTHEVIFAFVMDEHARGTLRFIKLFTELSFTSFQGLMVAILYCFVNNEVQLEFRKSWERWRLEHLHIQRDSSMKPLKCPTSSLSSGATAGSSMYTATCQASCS

EC50, CRE-Luciferase reporter gene assay on CHO-DHFR- cells co-expressing hGLP1R [1]: 0.04 nM
IC50, direct cAMP assay, antagonism of GIP (50 pM) activation of hGIPR on CHO-DHFR cells [2]: 14.9 nM
B1: GIPR antibody/GLP-1 fusion protein GLP-1-Linker-L7H6 (protein, part only; not given: constant regions, not shown: a dimerising Fc or GST)
light, part: HGEGTFTSDVSSYLEGQAAKEFIAWLVKGGGGGSGGGGSGGGGSDIVLTQSPASLAVSPGQRATITCRASQSVNTAVYSYIHWYQQKPGQPPKLLIKYASNLESGVPARFSGSGSGTDFTLTINPVEANDAANYYCQHSFDFPYTFGGGTKVEIKR
heavy, part: QVQLQESGPGLVKPSQTLSLTCTVSGYSITSDYAWNWIRQPPGKGVEWMGYISYRGIATYKPSLKSRITISRDTSKNQFSLKLSSVTAADTAVYYCVRGEYGPGNFDFWGQGTTVTVSS

IC50, direct cAMP assay, antagonism of GIP (50 pM) activation of hGIPR on CHO-DHFR cells [3]: 7.6 nM
B2: hGIPR antibody L7H6 (antibody, V domains shown)
VH: QVQLQESGPGLVKPSQTLSLTCTVSGYSITSDYAWNWIRQPPGKGVEWMGYISYRGIATYKPSLKSRITISRDTSKNQFSLKLSSVTAADTAVYYCVRGEYGPGNFDFWGQGTTVTVSS
VL: DIVLTQSPASLAVSPGQRATITCRASQSVNTAVYSYIHWYQQKPGQPPKLLIKYASNLESGVPARFSGSGSGTDFTLTINPVEANDAANYYCQHSFDFPYTFGGGTKVEIKR

binding result [4]: binds
B3: hGIPR antibody L10H8 (antibody, V domains shown)
VH: QVQLQQSGAEVKKPGSSVKVSCKASGGTFSSYAISWVRQAPGQGLEWMGGIIPTFGTANYAQKFQGRVTITADESTSTAYMELSSLRSEDTAVYYCAQGPIVGAPTDYWGKGTLVTVSS
VL: SYVLTQPPSASGTPGQRVAISCSGSNSNIGSNTVHWYQQLPGAAPKLLIYSNNQRPSGVPDRFSGSNSGTSASLAISRLQSEDEADYYCAAWDDSLNGVVFGGGTKVTVL
notes: Recombinantly expressed complete antibody; Only the variable domains are tied to L10H8; also called Ll0H8
